From patent US20150037339A1 (Regeneron, published 2015)

T1: Activin AB (human, UniProt P08476 311-426; P09529 293-407)
T1 construct: Heterodimer of one betaA and one betaB subunit; bought (R&D Systems #1006-AB-005 / #1066-AB)
T1 chain 1: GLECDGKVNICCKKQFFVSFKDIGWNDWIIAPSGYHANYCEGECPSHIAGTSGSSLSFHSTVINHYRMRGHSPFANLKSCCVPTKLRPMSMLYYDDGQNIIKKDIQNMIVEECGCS
T1 chain 2: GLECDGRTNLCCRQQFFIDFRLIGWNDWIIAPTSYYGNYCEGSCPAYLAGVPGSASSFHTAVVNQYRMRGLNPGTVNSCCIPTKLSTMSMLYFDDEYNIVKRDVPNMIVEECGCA

T2: Activin AC (human, UniProt P55103 237-352)
T2 construct: Heterodimer of one betaA and one betaC subunit; bought (R&D Systems #4879-AC)
T2 sequence 1: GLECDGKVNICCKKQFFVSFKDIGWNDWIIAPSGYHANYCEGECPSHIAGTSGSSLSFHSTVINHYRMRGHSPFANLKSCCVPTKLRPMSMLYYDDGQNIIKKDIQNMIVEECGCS
T2 sequence 2: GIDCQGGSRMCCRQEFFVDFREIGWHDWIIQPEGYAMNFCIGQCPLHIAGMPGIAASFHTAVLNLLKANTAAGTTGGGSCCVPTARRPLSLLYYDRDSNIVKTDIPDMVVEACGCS

T3: hBMP7 (human, UniProt P18075 293-431)
T3 construct: Bought protein
T3 sequence (looked up): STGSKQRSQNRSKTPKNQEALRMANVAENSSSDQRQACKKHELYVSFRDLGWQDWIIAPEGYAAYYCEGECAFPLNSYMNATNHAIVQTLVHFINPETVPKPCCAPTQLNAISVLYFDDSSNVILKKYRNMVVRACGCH

T4: Activin A (human, UniProt P08476 311-426)
T4 construct: Homodimer of two betaA subunits; bought (R&D Systems #338-AC); also called inhibin-betaA dimer
T4 sequence: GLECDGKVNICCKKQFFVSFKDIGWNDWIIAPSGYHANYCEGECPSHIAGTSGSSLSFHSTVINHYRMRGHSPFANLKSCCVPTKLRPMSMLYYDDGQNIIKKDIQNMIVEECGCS

T5: hBMP4 (human, UniProt P12644 293-408)
T5 construct: Bought protein
T5 sequence (looked up): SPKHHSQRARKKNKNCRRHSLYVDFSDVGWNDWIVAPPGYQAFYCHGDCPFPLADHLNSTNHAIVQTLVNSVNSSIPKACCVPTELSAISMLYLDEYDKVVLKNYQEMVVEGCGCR

T6: hBMP6 (human, UniProt P22004 382-513, limits assumed)
T6 construct: Bought protein
T6 sequence (looked up): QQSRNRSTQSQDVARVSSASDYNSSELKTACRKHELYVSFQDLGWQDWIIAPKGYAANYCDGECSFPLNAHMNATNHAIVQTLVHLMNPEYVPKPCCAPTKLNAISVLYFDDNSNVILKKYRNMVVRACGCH

T7: hBMP10 (human, UniProt O95393 317-424)
T7 construct: Bought protein
T7 sequence (looked up): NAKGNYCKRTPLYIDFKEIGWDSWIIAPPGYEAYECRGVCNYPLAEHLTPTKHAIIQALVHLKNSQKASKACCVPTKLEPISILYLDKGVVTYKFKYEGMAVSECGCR

T8: Activin B (human, UniProt P09529 293-407)
T8 construct: Homodimer of two betaB subunits; bought (R&D Systems #659-AB)
T8 chain: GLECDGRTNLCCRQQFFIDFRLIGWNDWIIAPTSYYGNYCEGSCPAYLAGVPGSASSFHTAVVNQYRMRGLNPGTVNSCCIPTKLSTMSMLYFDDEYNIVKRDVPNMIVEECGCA

T9: hBMP9 (human, UniProt Q9UK05 320-429)
T9 construct: Bought protein
T9 sequence (looked up): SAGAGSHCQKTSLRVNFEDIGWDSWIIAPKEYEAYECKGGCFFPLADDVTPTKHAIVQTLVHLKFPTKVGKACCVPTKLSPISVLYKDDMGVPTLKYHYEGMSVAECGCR


Key:
[1] = molecular target: T1, Activin AB; assay: SPR (Biacore), mAb captured on anti-Fc, Activin AB injected, 25 C
How it was run: (§1)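 240 s association, 600 s buffer dissociation; ka, kd fitted; KD (M) = kd/ka; t1/2 (min) = ln2/(60*kd).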

[2] = molecular target: T2, Activin AC; assay: SPR (Biacore 4000), captured on anti-human Fc, 200 nM ligand injected, 37 C
Protocol: (§2) For the binding experiment, a Biacore 4000 instrument was used. […] All Biacore binding studies were performed in HBS-T running buffer (0.01 M HEPES pH 7.4, 0.5 M NaCl, 3 mM EDTA, 0.5 mg/ml bovine serum albumin, 0.05% v/v Surfactant P20). […] All binding measurements were performed at 37° C. […] Over the captured antibody surface was injected the TGF-beta family ligands through concentrations ranging from 3.1 nM to 200 nM.

[3] = molecular target: T3, hBMP7; assay: as above
Protocol: as §2

[4] = molecular target: T4, Activin A; assay: as above
Protocol: as §2

[5] = molecular target: T1, Activin AB; assay: as above
Protocol: as §2

[6] = molecular target: T5, hBMP4; assay: as above
Protocol: as §2

[7] = molecular target: T6, hBMP6; assay: as above
Protocol: as §2

[8] = molecular target: T10, hBMP2 (human, UniProt P12643 283-396); assay: as above
T10 construct: Bought protein; also called BPM2
T10 sequence (P12643 283-396 limits assumed): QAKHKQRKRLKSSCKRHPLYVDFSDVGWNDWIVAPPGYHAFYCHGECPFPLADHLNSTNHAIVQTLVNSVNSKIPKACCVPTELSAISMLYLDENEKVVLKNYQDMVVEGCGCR
Protocol: as §2

[9] = molecular target: T11, GDF8 (human, UniProt O14793 267-375); assay: as above
T11 construct: Bought (R&D Systems #788-G8); also called hGDF8; growth and differentiation factor-8
Protocol: as §2

[10] = molecular target: T7, hBMP10; assay: as above
Protocol: as §2

[11] = molecular target: T8, Activin B; assay: as above
Protocol: as §2

[12] = molecular target: T12, GDF11 (human, UniProt O95390 299-407); assay: as above
T12 construct: Bought protein; also called hGDF11
T12 sequence (O95390 299-407 limits assumed): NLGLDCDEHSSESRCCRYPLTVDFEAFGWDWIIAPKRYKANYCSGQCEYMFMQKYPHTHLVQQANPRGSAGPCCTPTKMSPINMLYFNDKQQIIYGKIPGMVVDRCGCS
Protocol: as §2

[13] = molecular target: T9, hBMP9; assay: as above
Protocol: as §2

[14] = molecular target: T1, Activin AB; assay: SPR (Biacore), mAb captured on anti-Fc, Activin AB injected, 37 C
How it was run: as §1

[15] = molecular target: T2, Activin AC; assay: SPR (Biacore), mAb captured on anti-Fc, Activin AC injected, 25 C
How it was run: as §1

[16] = molecular target: T2, Activin AC; assay: SPR (Biacore), mAb captured on anti-Fc, Activin AC injected, 37 C
How it was run: as §1

[17] = molecular target: T2, Activin AC; assay: cell-based or functional assay
[18] = molecular target: T4, Activin A; assay: cell-based or functional assay
[19] = molecular target: T1, Activin AB; assay: cell-based or functional assay

Binder | 50 nM Ag Bound (RU) [1] | Kd [1] | koff [1] | kon [1] | t1/2 [1] | binding response (resonance units) for 200 nM ligand [2] | binding response (resonance units) for 200 nM ligand [3] | binding response (resonance units) for 200 nM ligand [4] | binding response (resonance units) for 200 nM ligand [5] | binding response (resonance units) for 200 nM ligand [6] | binding response (resonance units) for 200 nM ligand [7] | binding response (resonance units) for 200 nM ligand [8] | binding response (resonance units) for 200 nM ligand [9] | binding response (resonance units) for 200 nM ligand [10] | binding response (resonance units) for 200 nM ligand [11] | binding response (resonance units) for 200 nM ligand [12] | binding response (resonance units) for 200 nM ligand [13] | 50 nM Ag Bound (RU) [14] | Kd [14] | koff [14] | other results
H4H10442P2 (antibody, human IgG4, V domains shown) VH: QVQLQESGPGLVKPSETLSITCTVSGGSFSSHFWTWIRQPPGKGLEWIGYLHYSGGTSYNPSLKSRVIISVDTSKNQFSLKLNSVTAADTAVYYCARARSGITFGGLIVPGSFDIWGQGTMVTVSS VL: not shown | 34.6 RU | 0.32 nM | 0.00177 s⁻¹ | 5.53e+06 M⁻¹ s⁻¹ | 6.5 min | 14.2 RU | 1.5 RU | 63.9 RU | 65.2 RU | -0.7 RU | 1.1 RU | -2.3 RU | 0.5 RU | -0.7 RU | -1.8 RU | 1 RU | 0 RU | 45.9 RU | 0.464 nM | 0.00425 s⁻¹ | kon [14]: 9.17e+06 M⁻¹ s⁻¹; t1/2 [14]: 2.7 min; 50 nM Ag Bound (RU) [15]: 18.6 RU; Kd [15]: 1.57 nM; koff [15]: 0.00205 s⁻¹; kon [15]: 1.31e+06 M⁻¹ s⁻¹; t1/2 [15]: 5.6 min; 50 nM Ag Bound (RU) [16]: 21.4 RU; Kd [16]: 4.1 nM; koff [16]: 0.00599 s⁻¹; kon [16]: 1.46e+06 M⁻¹ s⁻¹; t1/2 [16]: 1.9 min; IC50 [M], inhibition of 4 nM Activin AC in A204/CAGAx12-Luc Smad2/3-luciferase bioassay [17]: 6.5e-09 M; IC50 [M], inhibition of 100 pM Activin A in A204/CAGAx12-Luc Smad2/3-luciferase bioassay [18]: 5.6e-11 M; IC50 [M], inhibition of 30 pM Activin AB in A204/CAGAx12-Luc Smad2/3-luciferase bioassay [19]: 2.2e-09 M
H4H10430P (antibody, human IgG4, V domains shown) VH: EVQLVESGGGLVQPGRSLRLSCKASGFAFDDFAMHWVRQAPGKGLEWVSGIVWNSGDIGYADSVKGRFTISRDNAKNSLYLQLNSLRTEDTALYFCVKDMVRGLMGFNYYGMDVWGQGTTVTVSS VL: EIVLTQSPATLSLSPGERATLSCRASQTISTYLVWYRQRPGQAPSLLIYDASNRATDIPARFSGSGSGTDFTLTISSLEPEDFAVYYCQQRSNWPITFGQGTRLEIK | 33 RU | 0.0185 nM | 0.000217 s⁻¹ | 1.17e+07 M⁻¹ s⁻¹ | 53.3 min | 34.8 RU | 6.4 RU | 69.1 RU | 95 RU | -0.6 RU | 5.7 RU | -1.7 RU | -0.1 RU | 0.3 RU | 0.4 RU | 3 RU | -0.6 RU | 41 RU | 0.0535 nM | 0.000541 s⁻¹ | kon [14]: 1.01e+07 M⁻¹ s⁻¹; t1/2 [14]: 21.3 min; 50 nM Ag Bound (RU) [15]: 23.6 RU; Kd [15]: 8.86 nM; koff [15]: 0.0109 s⁻¹; kon [15]: 1.23e+06 M⁻¹ s⁻¹; t1/2 [15]: 1.1 min; 50 nM Ag Bound (RU) [16]: 25.3 RU; Kd [16]: 16.7 nM; koff [16]: 0.02 s⁻¹; kon [16]: 1.2e+06 M⁻¹ s⁻¹; t1/2 [16]: 0.6 min; IC50 [M], inhibition of 4 nM Activin AC in A204/CAGAx12-Luc Smad2/3-luciferase bioassay [17]: 9.3e-10 M; IC50 [M], inhibition of 100 pM Activin A in A204/CAGAx12-Luc Smad2/3-luciferase bioassay [18]: 6.1e-11 M; IC50 [M], inhibition of 30 pM Activin AB in A204/CAGAx12-Luc Smad2/3-luciferase bioassay [19]: 1e-10 M
